Reference: article PMC2768332

T1: KSRP (UniProt Q92945 1-711)
T1 sequence: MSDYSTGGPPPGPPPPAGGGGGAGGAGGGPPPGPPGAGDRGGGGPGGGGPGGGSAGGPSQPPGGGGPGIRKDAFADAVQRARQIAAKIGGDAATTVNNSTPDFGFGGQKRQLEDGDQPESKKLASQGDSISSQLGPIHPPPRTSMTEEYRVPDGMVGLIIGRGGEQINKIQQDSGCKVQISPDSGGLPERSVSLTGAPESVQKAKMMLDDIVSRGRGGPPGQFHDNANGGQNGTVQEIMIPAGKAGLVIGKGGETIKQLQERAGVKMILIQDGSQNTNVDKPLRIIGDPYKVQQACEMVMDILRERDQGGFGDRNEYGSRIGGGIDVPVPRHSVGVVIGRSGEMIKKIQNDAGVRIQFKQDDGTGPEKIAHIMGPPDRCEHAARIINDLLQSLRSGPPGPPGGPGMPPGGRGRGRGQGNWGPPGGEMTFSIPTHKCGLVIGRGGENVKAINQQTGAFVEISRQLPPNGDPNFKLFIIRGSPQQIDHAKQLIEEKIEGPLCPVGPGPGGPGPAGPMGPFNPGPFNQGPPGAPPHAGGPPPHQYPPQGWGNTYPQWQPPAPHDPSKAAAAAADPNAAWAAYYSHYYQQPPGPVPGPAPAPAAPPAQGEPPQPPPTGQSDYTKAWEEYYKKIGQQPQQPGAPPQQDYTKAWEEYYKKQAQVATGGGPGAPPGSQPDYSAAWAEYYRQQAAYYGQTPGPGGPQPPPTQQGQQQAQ


Biological target: T1, KSRP
Experiment: UV-crosslinking or EMSA

Row | Binder | binding result
1 | CUCUUCAAUCUCAUGG (ssRNA) [TL-miR-21 M2] | no binding
2 | CUGUUGAAUCUCAUGG (ssRNA) [TL-miR-21 WT] | binds
